Measured values published in patent publication US20240245805A1 (Orna Therapeutics, Inc., priority 2020, published 2024).

B1: HRVB27 (nucleic acid, listed as Rhinovirus sp.)
chain: TTAAAACAGCGGATGGGTATCCCACCATCCGACCCACAGGGTGTAGTGCTCTGGTATTTTGTACCTTTGCACGCCTGTTTCCCCATTGTACCCCTCCTTAAATTTCCTCCCCAAGTAACGTTAGAAGTTTAAGGAAACAAATGTACAATAGGAAGCATCACATCCAGTGGTGTTATGTACAAGCACTTCTGTTTCCCCGGAGCGAGGTATAAGTGGTACCCACCGCCGAAAGCCTTTAACCGTTATCCGCCAATCAACTACGTAATGGCTAGTATTACCATGTTTGTGACTTGGTGTTCGATCAGGTGGTTCCCCCCACTAGTTTGGTCGATGAGGCTAGGAACTCCCCACGGGTGACCGTGTCCTAGCCTGCGTGGCGGCCAACCCAGCTTTTGCTGGGACGCCTTTTTACAGACATGGTGTGAAGACCTGCATGTGCTTGATTGTGAGTCCTCCGGCCCCTGAATGCGGCTAACCTTAACCCCGGAGCCTTGCAACATAATCCAATGTTGTTGAGGTCGTAATGAGTAATTCTGGGATGGGACCGACTACTTTGGGTGTCCGTGTTTCCTTTTATTCTTTATATTGTCTTATGGTCACAGCATATATAGCATATATACTGTGATC
modifications: lipid formulation
B2: Parabovirus C (nucleic acid)
DNA: GATGTATCCCCATCCCCCAGTGTGTATGCCATACTGCATAGCTCGCCTATGCCCTATGGATTCACAACCCTTTCATATACCCTCCCTACCCAACCCCGTAACCACATGCTTTACTCCGCTTGGGGTTTTGCGGCCCCATGTTGTGACGAAATGGCTACGCAATCAATGCGGCTAATGGGGCCTGCCGCTTTTAAGTGGCCCCAGTTAGAAGTTTATGCACACCCGCCCATTAGGAGGCCACCAGCCAGGTGGTCAGAGGGCAAGCACTTCTGTTTCCCCGGTGAAGTTTGATAAGCTGTGCCCACGGCTGAAGCAGACAGATCCGTTACCCGCCTCACTACTACGAGACGGCTAGTAGTGTGTAATATCCGAATTTCATTGATCCGGGTGTTCCCCCCACCCAGAAACGTGTGATGAGGAGCGGCACCCCTCCTATGGCAACATAGGGCCTCTCCTGCGCTGGCACACGGGCTCTATGAGCATGAAATCAGGAGAAAGTCACACGAAGACCTTATTGTGCTAGTGTTGATTCCTCCGCCCCCCTGAATGCGGCTAATCCCAACTCCGGAGCGCCCGCTGGCAAACCCGCCAGAAGAGCGTCGTAATGCGTAAGTCTGGAGCGGAACCGACTACTTTGGGTGTGGCGTGTTTCCTTTATTTCCTTTGTATTTGTAT
modifications: lipid formulation; Parabovirus C
B3: Rabovirus A NYC-B10 (nucleic acid)
DNA: CCGACCCCACTGGTCGAAGGCCACTTGGCAATAAGACTGGTGGAACAAGGTCGCCTGTAGTTGATTGGAACCTTCTTTCTAATGACTTATGTCAGCGGTGCTACTCACACCGTAACTCTCCTACCCTATCCCCACGCTTGTGGAACTAGGAGGGGATGAGTGATTCAAGTAAGTACTGTCAGAATGGTGAAAATAATCTGATTCTGAAACGCTATGGATCCATCGAAAGATGGGGCTACACGCCTGCGGAACAACACATGGTAACATGTGCCCCAGGGGCCGAAAGCCACGGTGATAGGATCACCCGTGTAGTTTGAGATCATATCAATGTTCATAGTCTAGTAAGATGATTTGAAATCTAACTGGTCTGATGGCTAACTGCTTGTCTTATTGCGGCCTAAGGATGTCCTGCAGGTACCTTTAGAGAACCTTAAGAGACTATTGATCTGAGCAGGAGCCAAGGTGGTCTTTCCCAGCCTTGGTTAAAAAGCGTCTAAGCCGCGGCAGGGGGCGGGAGGCCCCCTTTCCTCCCAAACTATAATATAGATTGT
modifications: lipid formulation; Rabovirus A
B4: HRVC3 QPM (nucleic acid, listed as Rhinovirus sp.)
chain: TTAAAGCTGGATCATGGTTGTTCCCACCATGATTACCCACGCGGTGCAGTGGTCTTGTATTACGGTACATTTCCATACCAGTTTTATACACCCCACCCCGAAACTCATAGAAGTTTGTACACAATGACCAATAGGTGGTGGCCATCCAGGTCGCTAATGGTCAAGCACTTCTGTTTCCCCGGCACCCTTGTATACGCTTCACCCGAGGCGAAAAATGAGGTTGTCGTTATCCGCAAAGTGCCTACGAAAAGCCTAGTAACACTTTGAAAACCCATGGTTGGTCGCTCAGCTGTTTACCCAACAGTAGACCTGGCAGATGAGGCTAGACATTCCCCACCAGCGATGGTGGTCTAGCCTGCGTGGCTGCCTGCACACCCTGCCGGGTGTGAAGCCAGAAAGTGGACAAGGTGTGAAGAGCCTATTGTGCTCACTTTGAGTCCTCCGGCCCCTGAATGTGGCTAACCCTAACCCCGTAGCTGTTGCATGTAACCCAACATGTATGCAGTCGTAATGGGCAACTATGGGATGGGACCAACTACTTTGGGTGTCCGTGTTTCCTGTTTTACTTTTTCATTGCTTATGGTGACAATTGTATCTGATACACTTGTTACC
modifications: lipid formulation
B5: HRVA73 (nucleic acid, listed as Rhinovirus sp.)
chain: TTAAAACTGGGTTTGGGTTGTTCCCACCCAAACCACCCACGCGGTGTTGTACACTGTTATTCCGGTAACCTTGTACGCCAGTTTTATATCCCTTCCCCCCCTTGTAACTTAGAAGACATGCGAATCGACCAATAGCAGGCAATCAACCAGATTGTCACCGGTCAAGCACTTCTGTTTCCCCGGCTCTCGTTGATATGCTCCAACAGGGCAAAAACAATTGGAGTCGTTACCCGCAAGATGCCTACGCAAAACCTAGTAGCATCTTCGAAGATTTTTGGTTGGTCGCTCAGTTGCTACCCCAGCAATAGACCTGGCAGATGAGGCTAGAAATACCCCACTGGTGACAGTGTTCTAGCCTGCGTGGCTGCCTGCACACCCACACGGGTGTGAAGCCAAAGATTGGACAAGGTGTGAAGAGTCACGTGTGCTCATCTTGAGTCCTCCGGCCCCTGAATGCGGCTAACCTTAACCCCGTAGCCATTGCTCGCAATCCAGCGAGTATATGGTCGTAATGAGTAATTACGGGATGGGACCGACTACTTTGGGTGTCCGTGTTTCACTTTTTACTTATCAATTTGCTTATGGTGACAATATATATAGATATATATTGACACC
modifications: lipid formulation
B6: Felipivirus 127F (nucleic acid, listed as Felipivirus sp.)
chain: GATGTCGGATGACGGCTGGCCACCGGGGAAAAACGGCAAATGTGCACCACCTCTGCAACCCACGCCGACCACGTTTAACCATGGCGTTAGTAGGAGTGGACCACTGCAGTGGGCTCTGGTGTGCGACAGTCAGTGGTAGAGTAGACAGTCCTGACTGGGCAATGGGACCGCGTTGCGTATCCCTAGGTGGCATCGAGATTCCTCTGCTACCCACCAGCGTGGACTCCTATGGGGGGGGCCCCATAGGCTAGGTCTATACTGCCTGATAGGGTCGCGGCTGGTCGACCACTGACTGTATAACCAGTTGTAACTCACT

Each molecule was assayed on HEK293 cells. Details: circular RNA encoding Gluc with the listed IRES (UTR truncated to 675 nt) transfected into HEK293 cells; supernatant after 24 hours.
Format: cell-based, human
With B1 the “Expression (luminescence from secreted Gluc protein)” value (“Expression” below) was 2.04E+08.
For B2, the “Expression” value was 1.83E+07.
B3 was tested, and the “Expression” value was 1.24E+06.
B4 was tested, and the “Expression” value was 1.64E+07.
With B5 the “Expression” value was 1.08E+08.
With B6 the “Expression” value was 8.92E+06.
